Assays:
Test in all cases: flow cytometry, alanine-scan library in HEK-293T, with cytochalasin B
[1] = target: T1, hsGLUT4 L247A (human, UniProt P14672 1-509)
T1 sequence: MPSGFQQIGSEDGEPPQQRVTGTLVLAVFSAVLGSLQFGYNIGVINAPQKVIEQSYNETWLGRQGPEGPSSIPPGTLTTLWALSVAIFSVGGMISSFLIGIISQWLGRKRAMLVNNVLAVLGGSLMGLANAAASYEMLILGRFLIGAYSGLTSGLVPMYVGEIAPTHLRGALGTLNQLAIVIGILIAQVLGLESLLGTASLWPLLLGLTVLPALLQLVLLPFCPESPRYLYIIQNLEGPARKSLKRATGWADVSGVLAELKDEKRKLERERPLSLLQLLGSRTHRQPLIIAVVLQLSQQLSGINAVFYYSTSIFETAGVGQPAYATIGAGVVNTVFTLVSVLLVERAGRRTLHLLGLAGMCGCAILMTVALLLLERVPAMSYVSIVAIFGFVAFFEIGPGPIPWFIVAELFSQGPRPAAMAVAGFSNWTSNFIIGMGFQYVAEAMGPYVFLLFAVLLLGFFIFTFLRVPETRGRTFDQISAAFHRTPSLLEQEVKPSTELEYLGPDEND
Procedure, shortened: (§1)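 HEK-293T cells expressing individual GLUT4 alanine mutants were stained 48 h post-transfection with anti-GLUT4 scFv MAbs (2 μg/ml), then biotinylated secondary and streptavidin-PerCP, and read by high-throughput flow cytometry. Where used, cytochalasin B (10 uM final) was given for 30 min before and during primary antibody staining.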

[2] = target: T2, hsGLUT4 G446A (human, UniProt P14672 1-509)
T2 sequence: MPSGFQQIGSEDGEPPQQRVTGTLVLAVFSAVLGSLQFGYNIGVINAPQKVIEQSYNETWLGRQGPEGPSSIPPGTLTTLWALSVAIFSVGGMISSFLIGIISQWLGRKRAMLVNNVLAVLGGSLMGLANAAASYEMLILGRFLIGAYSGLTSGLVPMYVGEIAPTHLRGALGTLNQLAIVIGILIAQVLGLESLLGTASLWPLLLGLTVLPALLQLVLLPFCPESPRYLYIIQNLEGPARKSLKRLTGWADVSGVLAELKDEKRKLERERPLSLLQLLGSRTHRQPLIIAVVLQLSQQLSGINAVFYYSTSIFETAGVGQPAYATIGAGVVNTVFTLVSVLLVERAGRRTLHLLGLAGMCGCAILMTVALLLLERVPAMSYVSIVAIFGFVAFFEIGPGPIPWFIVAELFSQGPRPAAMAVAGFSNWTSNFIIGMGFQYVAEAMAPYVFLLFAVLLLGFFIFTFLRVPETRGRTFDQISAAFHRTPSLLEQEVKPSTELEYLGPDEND
Procedure, shortened: as §1

[3] = target: T3, hsGLUT4 G348A (human, UniProt P14672 1-509)
T3 sequence: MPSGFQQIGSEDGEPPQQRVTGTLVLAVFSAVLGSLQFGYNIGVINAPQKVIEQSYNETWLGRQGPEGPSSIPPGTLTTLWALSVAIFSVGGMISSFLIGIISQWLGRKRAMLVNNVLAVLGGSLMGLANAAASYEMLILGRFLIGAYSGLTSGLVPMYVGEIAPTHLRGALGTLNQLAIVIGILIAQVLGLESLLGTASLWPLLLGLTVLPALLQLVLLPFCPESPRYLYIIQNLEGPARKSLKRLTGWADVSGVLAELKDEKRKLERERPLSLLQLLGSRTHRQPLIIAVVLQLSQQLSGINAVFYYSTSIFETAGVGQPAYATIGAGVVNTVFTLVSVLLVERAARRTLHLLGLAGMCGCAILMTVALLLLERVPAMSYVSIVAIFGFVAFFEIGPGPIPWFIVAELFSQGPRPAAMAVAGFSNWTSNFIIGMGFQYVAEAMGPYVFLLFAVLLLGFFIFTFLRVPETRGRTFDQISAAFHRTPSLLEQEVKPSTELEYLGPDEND
Procedure, shortened: as §1

[4] = target: T4, hsGLUT4 E345A (human, UniProt P14672 1-509)
T4 sequence: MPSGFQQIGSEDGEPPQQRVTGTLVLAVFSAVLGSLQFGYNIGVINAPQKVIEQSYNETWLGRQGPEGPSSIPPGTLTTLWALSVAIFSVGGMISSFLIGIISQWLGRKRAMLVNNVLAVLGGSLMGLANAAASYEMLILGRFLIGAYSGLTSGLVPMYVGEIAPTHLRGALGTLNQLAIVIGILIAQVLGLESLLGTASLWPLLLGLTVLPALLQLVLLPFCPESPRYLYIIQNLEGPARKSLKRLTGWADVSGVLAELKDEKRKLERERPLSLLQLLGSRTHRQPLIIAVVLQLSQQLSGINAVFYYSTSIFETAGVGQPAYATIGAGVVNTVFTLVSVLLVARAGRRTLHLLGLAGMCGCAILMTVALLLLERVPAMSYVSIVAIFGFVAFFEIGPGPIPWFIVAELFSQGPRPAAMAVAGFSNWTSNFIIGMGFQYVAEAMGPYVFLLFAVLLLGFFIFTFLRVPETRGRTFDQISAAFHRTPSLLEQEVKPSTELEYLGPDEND
Procedure, shortened: as §1

B1: AB102 (Fc fusion)
scFv: ALTQPSSVSANLGGTVKITCSGGGSYGYGWYQQKSPGSAPVTVIYSNDQRPSDIPSRFSGSKSGSTATLTITGVRAEDEAIYYCGSTDSDYVGIFGAGTTLTVLGQSSRSSGGGGSSGGGGSAVTLDESGGGLQTPGGTLSLVCKASGFDFSSYATIWVRQAPGKGLEWVAGISGTGTGSSTGYAPAVKGRATISRDNGQSTVRLQLNNLRAEDTGSYFCAKSTGYGDSWIYPDSIDAWGHGTEVIVSS
notes: also called MAb AB102; not shown: Fc fragment of human IgG1, cloned in frame with the scFv
% of binding to wild type GLUT4 [1]: 15% | % of binding to wild type GLUT4 [2]: 43% | % of binding to wild type GLUT4 [3]: 79% | % of binding to wild type GLUT4 [4]: 80%

From patent publication US20210238276A1 (INTEGRAL MOLECULAR, published 2021)
